From article PMC10628234 come the findings set out here.

This assay addresses Coxiella burnetii Fic enzyme 2 (CbFic2), wild type, untagged (Coxiella burnetii) (UniProt Q83DB6). As to the kind of experiment: crystal structure.

In general, stoichiometry N refers to a count of units in the complex or per binding partner.

As for “Coxiella burnetii Fic enzyme 2 (CbFic2), wild type, untagged (from UniProt Q83DB6 1-378)”, the stoichiometry N stood at 2.
